This data set relates to DtxR (Corynebacterium glutamicum (derived from KCTC No. 1445)). The data set can be described thus: EMSA. The conditions noted are these: 150 uM Mn2+, 5 mM Mg2+, 50 mM Tris-HCl pH 7.5, 5 mM MgCl2, 40 mM KCl, 5% glycerol, 1 mM DTT, 150 uM MnCl2, 30 min at room temperature, 200 ng DNA, 0-350 ng DtxR dimer in 10 ul, 15% …. In general terms: In EMSA bound probe runs differently from free probe, usually more slowly.

Turning to “NCgl1959 regulatory region, wild type (399 bp)”, for the setting “reference”, the binding signal (% of wild-type affinity) amounted to 100.
“NCgl1959 regulatory region, C-14G (399 bp)” returned a binding signal (% of wild-type affinity) of 40.

For the origin of these results see publication PMC7755716.
